From patent US20150147278A1 (KINKI UNIVERSITY, published 2015)
Changes are numbered by the printed parent chain.

B1: LG9112 monoclonal antibody (antibody, V domains shown)
VH: QMQLKESGPGLVQPSQTLSLTCAVSGFSLPTSSVSWIRQSPGKGLEWMGVIWSNGNTDYSSRFKSRLSISRDTAKSQVFLKMNSLQAEDTAMYFCARNFRNDPGVMDAWGQGASVTVSS
VL: NIVMTQSPKSMSISVGDRVTMNCKASQNVGNNVAWYQQKPGLSPKLLISYASSRHTGVPDRFTGRGSGADFTLTINGVQAEDAAFYYCQRVYKSPYTFGGGTKLELKR
notes: Rat monoclonal antibody from a hybridoma, purified from ascites with Protein G and detected with anti-rat IgG; also called anti-LAT1/CD98 monoclonal antibody
B2: LG9111 monoclonal antibody (antibody, V domains shown)
VH: B1 VH with M2L, A23T, S40P, R62A, F63I, A74S, A87T, M92R
VL: NIVMTQSPRSMSLSGGDRVTMNCRASQNVGNNVAWYQQRPGQSPKLLISYASNRNTGVPGRFTGSGSGTDFTLTISSVQAEDAAFYYCQRIYKSPYTFGGGTKLELKR
notes: as for B1
B3: LG9114 monoclonal antibody (antibody, V domains shown)
VH: B1 VH with F63I, A74S, A87T, D102N
VL: B1 VL with S49Y, R65S, G77S
notes: as for B1
B4: LG9113 monoclonal antibody (antibody, V domains shown)
VH: B1 VH with A87T
VL: B1 VL with N28T
notes: as for B1

Molecular target: T1, human LAT1/CD98 complex (human, UniProt Q01650 1-507; P08195 2-529)
T1 construct: whole, on cells; Disulfide-bonded heterodimer, endogenous on human tumor cell lines (HCT116, NCI-H1944, A549, HeLa); No purified or transfected antigen was used; also called LAT1/CD98 complex protein; LAT1/4F2hc
Experiment: flow cytometry on human tumor cell lines, antibody prepared at 40 µg/mL; reference LGtra01-01
Method: Using four types of human tumor cell lines, the anti-LAT1/CD98 monoclonal antibodies were measured for their binding ability by FCM analysis. The human tumor cell lines were each adjusted with PBS to 1×10⁵ cells/well and dispensed into tubes in 50 μL volumes. To this cell suspension, 50 μL of each monoclonal antibody prepared at 40 μg/mL was added and reacted at 4° C. for 45 minutes. After washing three times by addition of 0.1% BSA-PBS (100 μL) and the subsequent centrifugation at 500 g for 3 minutes at 4° C., the cell pellets were each supplemented with 50 μL of 200-fold diluted PE-labeled anti-rat IgG (Jackson Immuno Research) and reacted under light-shielded conditions at 4° C. for 45 minutes. After washing three times by addition of 0.1% BSA-PBS (100 μL) and the subsequent centrifugation at 500 g for 3 minutes at 4° C., the cells were suspended in PBS (500 μL) and then transferred to FCM tubes. PI (100 μL) was added immediately before measurement to remove dead cells, followed by measurement with a FACS calibur (Becton Dickinson).

T1 sequence (Q01650 whole entry, chain 1 of 2): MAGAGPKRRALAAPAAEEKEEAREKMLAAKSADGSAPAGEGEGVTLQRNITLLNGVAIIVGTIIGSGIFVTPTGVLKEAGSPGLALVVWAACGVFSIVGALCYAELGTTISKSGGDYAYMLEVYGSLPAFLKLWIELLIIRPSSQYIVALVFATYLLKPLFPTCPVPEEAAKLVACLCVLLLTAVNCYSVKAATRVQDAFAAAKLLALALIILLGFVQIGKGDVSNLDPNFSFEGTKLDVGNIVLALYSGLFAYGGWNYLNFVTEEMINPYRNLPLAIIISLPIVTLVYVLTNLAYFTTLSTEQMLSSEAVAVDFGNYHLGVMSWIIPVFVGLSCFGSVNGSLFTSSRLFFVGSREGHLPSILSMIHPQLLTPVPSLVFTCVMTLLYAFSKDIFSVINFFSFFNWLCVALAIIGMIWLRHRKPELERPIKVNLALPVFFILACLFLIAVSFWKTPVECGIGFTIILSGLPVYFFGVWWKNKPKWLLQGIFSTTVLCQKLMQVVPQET
T1 sequence (P08195 103-630, chain 2 of 2): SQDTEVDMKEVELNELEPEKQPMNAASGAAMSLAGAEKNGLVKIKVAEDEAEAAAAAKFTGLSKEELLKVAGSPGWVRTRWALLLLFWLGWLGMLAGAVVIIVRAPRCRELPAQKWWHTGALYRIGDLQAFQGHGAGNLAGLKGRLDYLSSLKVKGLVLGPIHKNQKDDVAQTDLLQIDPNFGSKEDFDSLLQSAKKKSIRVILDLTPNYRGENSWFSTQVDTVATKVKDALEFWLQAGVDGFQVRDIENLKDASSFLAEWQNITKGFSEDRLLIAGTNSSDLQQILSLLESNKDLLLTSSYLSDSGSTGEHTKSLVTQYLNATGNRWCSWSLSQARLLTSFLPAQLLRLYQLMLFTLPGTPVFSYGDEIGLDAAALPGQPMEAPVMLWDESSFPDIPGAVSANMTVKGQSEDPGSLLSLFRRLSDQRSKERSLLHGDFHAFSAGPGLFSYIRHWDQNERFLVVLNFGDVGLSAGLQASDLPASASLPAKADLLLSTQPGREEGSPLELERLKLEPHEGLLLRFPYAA

fold higher binding activity than LGtra01-01 monoclonal antibody	Binder
≥ 10 fold	B1
≥ 10 fold	B2
≥ 10 fold	B3
≥ 10 fold	B4
